From patent US20120058906A1 (published 2012)

Experiments:
[1] = biological target: T1, Recombinant Human DLL4 (R&D Systems Cat#1506-D4/CF) (human, UniProt Q9NR61 27-524); test: ECL (MSD multi-spot), antigen spotted on plate; Fab 1410 nM; blank spot 709;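 note: blank spot per well as comparator with Hit at signal to blank ratio of 4 or more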
T1 construct: Bought reagent; also called delta-like protein 4

[2] = biological target: T2, rHuman EGF R/Fc Chimera, CF (R&D Systems Cat#344-ER) (human, UniProt P00533 25-645); test: as above
T2 construct: Bought reagent; also called epidermal growth factor receptor; Fc part of the bought chimera not given

[3] = biological target: T3, rHuman HGF R/c-MET/Fc Chimera, CF (R&D Systems Cat#358-MT/CF) (human, UniProt P08581 25-932); test: as above
T3 construct: Bought reagent; also called HGF R/Fc; hepatocyte growth factor receptor; Fc part of the bought chimera not given

[4] = biological target: T4, rHuman Notch-1/Fc Chimera, CF (R&D Systems Cat#3647-TK) (human, UniProt P46531 19-526); test: as above
T4 construct: Bought reagent; Fc part of the bought chimera not given

[5] = biological target: T5, rHuman CD44/Fc Chimera, CF (R&D Systems Cat#3660-CD) (human, UniProt P16070 21-220); test: as above
T5 construct: Bought reagent; Fc part of the bought chimera not given

[6] = biological target: T6, rHuman IGF-1 sR (IGF-1 sR), CF (R&D Systems Cat#391-GR) (human, UniProt P08069 31-932); test: as above
T6 construct: Bought soluble receptor; also called insulin-like growth factor-1 soluble receptor; IGF-R1

[7] = biological target: T7, rHuman P-Cadherin/Fc Chimera, CF (R&D Systems Cat#861-PC) (human, UniProt P22223 108-654); test: as above
T7 construct: Bought reagent; also called CDH3; Fc part of the bought chimera not given

[8] = biological target: T8, rHuman CD44/Fc Chimera, CF (R&D Systems Cat#3660-CD) (human, UniProt P16070 21-220); test: ECL (MSD Multi-Spot) binding assay, antigen spotted on plate; Fab 15 nM; blank spot 261;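 note: blank spot per well as comparator with Hit at signal to blank ratio of 4 or more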
T8 construct: Bought Fc chimera; Fc part of the bought chimera not given

[9] = biological target: T9, rHuman P-Cadherin/Fc Chimera, CF (R&D Systems Cat#861-PC) (human, UniProt P22223 108-654); test: as above
T9 construct: Bought Fc chimera; also called CDH3; Fc part of the bought chimera not given

[10] = biological target: T10, rHuman IGF-1 sR (insulin-like growth factor-1 soluble receptor), CF (R&D Systems Cat#391-GR) (human, UniProt P08069 31-932); test: ECL (MSD multi-spot), antigen on plate, Fab 5 nM
T10 construct: Bought soluble receptor; also called IGF-R1

[11] = biological target: T11, rHuman P-Cadherin/Fc Chimera, CF (R&D Systems Cat#861-PC) (human, UniProt P22223 108-654); test: ECL (MSD multi-spot), antigen on plate, Fab 5 nM
T11 construct: Bought Fc chimera; also called CDH3; not shown: Fc of the bought chimera

[12] = biological target: T12, rHuman Erythropoietin R/Fc Chimera, CF (R&D Systems Cat#963-ER) (human, UniProt P19235 25-250); test: ECL (MSD multi-spot), antigen on plate, Fab 5 nM
T12 construct: Bought Fc chimera; also called EPO R/Fc; Epo R; not shown: Fc of the bought chimera
T12 sequence: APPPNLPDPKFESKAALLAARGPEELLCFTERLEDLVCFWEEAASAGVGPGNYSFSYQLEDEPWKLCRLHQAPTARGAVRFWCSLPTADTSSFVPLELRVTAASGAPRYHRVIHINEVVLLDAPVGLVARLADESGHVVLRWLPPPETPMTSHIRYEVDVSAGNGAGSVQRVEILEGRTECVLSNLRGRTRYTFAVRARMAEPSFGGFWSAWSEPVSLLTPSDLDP

[13] = biological target: T13, Recombinant Human DLL4 (R&D Systems Cat#1506-D4/CF) (human, UniProt Q9NR61 27-524); test: ECL (MSD multi-spot), antigen on plate, Fab 5 nM
T13 construct: Bought recombinant protein; also called delta-like protein 4

[14] = biological target: T14, rHuman ErbB2/Fc Chimera, CF (R&D Systems Cat#1129-ER) (human, UniProt P04626 23-652); test: ECL (MSD multi-spot), antigen on plate, Fab 5 nM
T14 construct: Bought Fc chimera; also called HER2/neu; not shown: Fc of the bought chimera

[15] = biological target: T15, rHuman EGF R/Fc Chimera, CF (R&D Systems Cat#344-ER) (human, UniProt P00533 25-645); test: ECL (MSD multi-spot), antigen on plate, Fab 5 nM
T15 construct: Bought Fc chimera; also called ErbB-1; not shown: Fc of the bought chimera

[16] = biological target: T16, rHuman HGF R/c-MET/Fc Chimera, CF (R&D Systems Cat#358-MT/CF) (human, UniProt P08581 25-932); test: ECL (MSD multi-spot), antigen on plate, Fab 5 nM
T16 construct: Bought Fc chimera; also called HGF R/Fc; not shown: Fc of the bought chimera

[17] = biological target: T17, rHuman Notch-1/Fc Chimera, CF (R&D Systems Cat#3647-TK) (human, UniProt P46531 19-526); test: ECL (MSD multi-spot), antigen on plate, Fab 5 nM
T17 construct: Bought Fc chimera; not shown: Fc of the bought chimera

[18] = biological target: T18, rHuman CD44/Fc Chimera, CF (R&D Systems Cat#3660-CD) (human, UniProt P16070 21-220); test: ECL (MSD multi-spot), antigen on plate, Fab 5 nM
T18 construct: Bought Fc chimera; not shown: Fc of the bought chimera

B1: Fab VH1-46_IGHD3-10*01_IGHJ4*01 & B3_IGKJ1*01 (Fab, V domains shown)
VH: QVQLVQSGAEVKKPGASVKVSCKASGYTFTSYYMHWVRQAPGQGLEWMGIINPSGGSTSYAQKFQGRVTMTRDTSTSTVYMELSSLRSEDTAVYYCAREYYYGSGSYYNDYFDYWGQGTLVTVSS
VL: not shown
notes: also called IGHV1-46*01
ECL signal [1]: 1260
ECL signal [2]: 1070
ECL signal [3]: 903
ECL signal [4]: 1030
ECL signal [5]: 885
ECL signal [6]: 426
ECL signal [7]: 1060

B2: Fab VH6-1_IGHD3-3*01_IGHJ4*01 & V4-3_IGLJ4*01 (Fab, V domains shown)
VH: QVQLQQSGPGLVKPSQTLSLTCAISGDSVSSNSAAWNWIRQSPSRGLEWLGRTYYRSKWYNDYAVSVKSRITINPDTSKNQFSLQLNSVTPEDTAVYYCAREYYDFWSGYYTDYFDYWGQGTLVTVSS
VL: QPVLTQPTSLSASPGASARLTCTLRSGINLGSYRIFWYQQKPESPPRYLLSYYSDSSKHQGSGVPSRFSGSKDASSNAGILVISGLQSEDEADYYCMIWHSSASFVFGGGTQLIIL
notes: Tested as a Fab made in E. coli; also called IGHV6-1*01
ECL signal [8]: 454
ECL signal [9]: 351

B3: Fab VH1-46_IGHD6-6*01_IGHJ1*01_S102A_S103P_S104Y_H111Y & L6_IGKJ1*01 (Fab, V domains shown)
VH: QVQLVQSGAEVKKPGASVKVSCKASGYTFTSYYMHWVRQAPGQGLEWMGIINPSGGSTSYAQKFQGRVTMTRDTSTSTVYMELSSLRSEDTAVYYCAREEYAPYSAEYFQYWGQGTLVTVSS
VL: not shown
notes: Fab made in E. coli; The heavy chain also carries CH1 with Flag and His tags from Plasmid A, and the light chain carries kappa CL from Plasmid C
ECL signal [10]: 3030 ECL signal
ECL signal [11]: 4160 ECL signal
ECL signal [12]: 3580 ECL signal
ECL signal [13]: 73400 ECL signal
ECL signal [14]: 2860 ECL signal
ECL signal [15]: 2980 ECL signal
ECL signal [16]: 3100 ECL signal
ECL signal [17]: 3230 ECL signal
ECL signal [18]: 2760 ECL signal
